This assay addresses Aβ(βアミロイドペプチド) (UniProt P05067). The experiment in a line: BIAcore. In general terms: Surface plasmon resonance follows binding to a sensor surface in real time, without labels.

For 1 substance, Kd results are on record in JP2012034697A.

One may read the Kd as the constant that tells how readily two partners part at equilibrium.

UniProt P05067, sequence (P05067 672-713 limits assumed): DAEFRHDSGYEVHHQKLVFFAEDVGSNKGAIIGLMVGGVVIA

The substance マウスモノクローナル抗体3D6 (antibody) returned a Kd of 0.88 nM.
